In patent US20150259425A1 (AbbVie / Abbott, published 2015):

Assays:
recombinant human CD16a [1] = molecular target: T1, recombinant human CD16a (human, UniProt P08637 17-208, limits assumed); test: AlphaScreen, recombinant human CD16a; high glycine batch against control batch
T1 construct: Recombinant human CD16a solution used in the AlphaScreen assay; also called CD16a receptor; human CD16a receptor
Experimental: (§1) A CD16a binding assay was performed using AlphaScreen (PerkinElmer) method to assess the binding potency of the antibody Fc region of four different antibodies to human CD16a receptor. The antibody solution was first mixed with a recombinant human CD16a solution and assay buffer, and then Alphascreen donor beads and antibody acceptor beads were added. The mixture was incubated in a light protected location for 4 hours at room temperature and the fluorescent signal was detected using a plate reader with laser excitation at 680 nm and light emission 520-620 nm. The binding potency relative to the antibody reference cultured in a basal medium without excess glycine was reported.

recombinant human CD16a [2] = molecular target: T1, recombinant human CD16a; test: AlphaScreen, recombinant human CD16a in solution; batch: 100 L with extra glycine
Experimental: as §1

recombinant human CD16a [3] = molecular target: T1, recombinant human CD16a; test: AlphaScreen, recombinant human CD16a in solution; batch: 1 kL with extra glycine
Experimental: as §1

recombinant human CD16a [4] = molecular target: T1, recombinant human CD16a; test: AlphaScreen, recombinant human CD16a in solution; batch: 1 kL control medium
Experimental: as §1

recombinant human CD16a [5] = molecular target: T1, recombinant human CD16a; test: AlphaScreen, recombinant human CD16a in solution; batch: 2 L with extra glycine
Experimental: as §1

recombinant human CD16a [6] = molecular target: T1, recombinant human CD16a; test: AlphaScreen, recombinant human CD16a in solution; batch: 2 L control medium
Experimental: as §1

recombinant human CD16a [7] = molecular target: T1, recombinant human CD16a; test: AlphaScreen, recombinant human CD16a in solution; batch: 250 L control medium
Experimental: as §1

recombinant human CD16a [8] = molecular target: T1, recombinant human CD16a; test: AlphaScreen, recombinant human CD16a in solution; batch: 50 L with extra glycine
Experimental: as §1

recombinant human CD16a [9] = molecular target: T1, recombinant human CD16a; test: AlphaScreen, recombinant human CD16a in solution; dose response study, batch: 2 L with extra 30 mM glycine
Experimental: as §1

recombinant human CD16a [10] = molecular target: T1, recombinant human CD16a; test: AlphaScreen, recombinant human CD16a in solution; dose response study, batch: 2 L control (2 mM glycine)
Experimental: as §1

recombinant human CD16a [11] = molecular target: T1, recombinant human CD16a; test: AlphaScreen, recombinant human CD16a in solution; dose response study, batch: 2 L with extra 5 mM glycine
Experimental: as §1

recombinant human CD16a [12] = molecular target: T1, recombinant human CD16a; test: AlphaScreen, recombinant human CD16a in solution; batch: 100 L control medium
Experimental: as §1

recombinant human CD16a [13] = molecular target: T1, recombinant human CD16a; test: AlphaScreen, recombinant human CD16a in solution; dose response study, batch: 2 L with extra 15 mM glycine
Experimental: as §1

recombinant human CD16a [14] = molecular target: T1, recombinant human CD16a; test: AlphaScreen, recombinant human CD16a in solution; batch: 1 kL control (GMP)
Experimental: as §1

B1: elotuzumab (antibody, human IgG1, kappa)
heavy: not shown
light: DIQMTQSPSSLSASVGDRVTITCKASQDVGIAVAWYQQKPGKVPKLLIYWASTRHTGVPDRFSGSGSGTDFTLTISSLQPEDVATYYCQQYSSYPYTFGQGTKVEIKRTVAAPSVFIFPPSDEQLKSGTASVVCLLNNFYPREAKVQWKVDNALQSGNSQESVTEQDSKDSTYSLSSTLTLSKADYEKHKVYACEVTHQGLSSPVTKSFNRGEC
modifications: N-linked glycans; the share of non-fucosylated glycoforms differs between batches (control vs high glycine medium)
notes: IgG1 made in NS0 cells; also called HuLuc63; HuLuc 63
Recombinant human CD16a [1]
  increase in binding affinity relative to the control antibody (basal medium, 2 mM glycine): 40 % increase
Recombinant human CD16a [2]
  CD16a Binding Relative to Reference: 128%
Recombinant human CD16a [3]
  CD16a Binding Relative to Reference: 146%
Recombinant human CD16a [4]
  CD16a Binding Relative to Reference: 100%

B2: daclizumab (antibody, human IgG1, kappa)
heavy: not shown
light: DIQMTQSPSTLSASVGDRVTITCSASSSISYMHWYQQKPGKAPKLLIYTTSNLASGVPARFSGSGSGTEFTLTISSLQPDDFATYYCHQRSTYPLTFGSGTKVEVKRTVAAPSVFIFPPSDEQLKSGTASVVCLLNNFYPREAKVQWKVDNALQSGNSQESVTEQDSKDSTYSLSSTLTLSKADYEKHKVYACEVTHQGLSSPVTKSFNR
modifications: N-linked glycans; the share of non-fucosylated glycoforms differs between batches
notes: Humanized IgG1 to CD25, made in NS0 cells; the entries may be incomplete; also called DAC HYP
Recombinant human CD16a [5]
  CD16a Binding Relative to Reference: 137%
Recombinant human CD16a [1]
  increase in binding affinity relative to the control antibody (basal medium, 2 mM glycine): 40 % increase
Recombinant human CD16a [6]
  CD16a Binding Relative to Reference: 69%

B3: PDL241 (antibody, human IgG1, kappa)
heavy: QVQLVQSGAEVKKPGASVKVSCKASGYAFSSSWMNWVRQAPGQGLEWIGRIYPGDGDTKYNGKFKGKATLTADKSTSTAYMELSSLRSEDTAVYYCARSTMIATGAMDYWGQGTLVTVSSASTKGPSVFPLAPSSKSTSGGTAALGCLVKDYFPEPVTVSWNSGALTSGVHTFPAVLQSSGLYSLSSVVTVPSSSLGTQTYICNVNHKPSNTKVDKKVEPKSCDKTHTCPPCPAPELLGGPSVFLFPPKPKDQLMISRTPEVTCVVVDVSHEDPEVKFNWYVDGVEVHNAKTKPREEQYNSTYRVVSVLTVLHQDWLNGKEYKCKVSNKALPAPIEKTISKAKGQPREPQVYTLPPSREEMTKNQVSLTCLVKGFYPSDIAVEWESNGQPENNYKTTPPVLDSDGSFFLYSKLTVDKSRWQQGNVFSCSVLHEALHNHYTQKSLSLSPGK
light: DIQMTQSPSSLSASVGDRVTITCKASQDVSTAVAWYQQKPGKAPKLLIYSASYRYTGVPDRFTGSGSGTDFTLTISSLQPEDFATYYCQQHYSTPPYTFGGGTKVEIKRTVAAPSVFIFPPSDEQLKSGTASVVCLLNNFYPREAKVQWKVDNALQSGNSQESVTEQDSKDSTYSLSSTLTLSKADYEKHKVYACEVTHQGLSSPVTKSFNRGEC
modifications: N-linked glycans; the share of non-fucosylated glycoforms differs between batches
notes: Humanized IgG1 to CS1, made in NS0 cells; Batches differ only in glycoforms
Recombinant human CD16a [5]
  CD16a Binding Relative to Reference: 277%
Recombinant human CD16a [1]
  increase in binding affinity relative to the control antibody (basal medium, 2 mM glycine): 40 % increase
Recombinant human CD16a [2]
  CD16a Binding Relative to Reference: 137%
Recombinant human CD16a [6]
  CD16a Binding Relative to Reference: 147%
Recombinant human CD16a [7]
  CD16a Binding Relative to Reference: 100%

B4: enavatuzumab (antibody, human IgG1, kappa)
heavy: not shown
light: DIQMTQSPSSLSASVGDRVTITCRASQSVSTSSYSYMHWYQQKPGKAPKLLIKYASNLESGVPSRFSGSGSGTDFTLTISSLQPEDFATYYCQHSWEIPYTFGGGTKVEIKRTVAAPSVFIFPPSDEQLKSGTASVVCLLNNFYPREAKVQWKVDNALQSGNSQESVTEQDSKDSTYSLSSTLTLSKADYEKHKVYACEVTHQGLSSPVTKSFNRGEC
modifications: N-linked glycans; the share of non-fucosylated glycoforms differs between batches
notes: Humanized IgG1 to TweakR, made in NS0 cells; Batches differ only in glycoforms; also called PDL192
Recombinant human CD16a [8]
  CD16a Binding Relative to Reference: 136%
Recombinant human CD16a [1]
  increase in binding affinity relative to the control antibody (basal medium, 2 mM glycine): 40 % increase
Recombinant human CD16a [9]
  CD16a Binding Relative to Reference: 144 relative to Reference (no unit printed; percent as in Table 15)
Recombinant human CD16a [10]
  CD16a Binding Relative to Reference: 130 relative to Reference (no unit printed; percent as in Table 15)
Recombinant human CD16a [11]
  CD16a Binding Relative to Reference: 146 relative to Reference (no unit printed; percent as in Table 15)
Recombinant human CD16a [12]
  CD16a Binding Relative to Reference: 110%
Recombinant human CD16a [4]
  CD16a Binding Relative to Reference: 96%
Recombinant human CD16a [13]
  CD16a Binding Relative to Reference: 151 relative to Reference (no unit printed; percent as in Table 15)
Recombinant human CD16a [14]
  CD16a Binding Relative to Reference: 65%
